Data taken from US20090220476A1 (CELLECTIS, published 2009).

Columns and labels:
[1] = target: T1, I-CreI Q44, A68, N70, N75, P05725
T1 chain: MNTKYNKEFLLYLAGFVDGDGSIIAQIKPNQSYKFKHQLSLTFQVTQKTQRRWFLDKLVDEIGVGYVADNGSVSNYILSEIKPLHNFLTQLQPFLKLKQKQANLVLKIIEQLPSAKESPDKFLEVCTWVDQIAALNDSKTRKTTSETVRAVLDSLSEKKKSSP

[2] = target: T2, I-CreI combinatorial mutant NNSRK/ARR, P05725
T2 chain: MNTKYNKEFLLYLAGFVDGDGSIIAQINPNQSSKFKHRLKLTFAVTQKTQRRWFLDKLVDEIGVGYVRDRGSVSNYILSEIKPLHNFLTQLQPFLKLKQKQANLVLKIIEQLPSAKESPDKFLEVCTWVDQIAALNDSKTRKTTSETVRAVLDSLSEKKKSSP

[3] = target: the molecule itself; assay: far-UV CD, 1H-NMR and analytical ultracentrifugation of purified protein; self-association (homodimer)
Experimental: Novel I-CreI variants were expressed, purified, and analyzed for in vitro cleavage as reported previously (Arnould et al., precited). Circular dichroism (CD) measurements were performed on a Jasco J-810 spectropolarimeter using a 0.2 cm path length quartz cuvette. Equilibrium unfolding was induced increasing temperature at a rate of 1° C./min (using a programmable Peltier thermoelectric). Samples were prepared by dialysis against 25 mM potassium phosphate buffer, pH 7.5, at protein concentrations of 20 μM.
Finally, analysis of the structure and stability of this group of combinatorial mutants was performed using far-UV CD (FIG. 19d), ¹H-NMR and analytical ultracentrifugation. […] Thus, the two sets of residues that were mutated, K28, N30, Y33, Q38 and S40 on one hand, Q44, R68 and R70 on the other, define two relatively independent DNA binding sub-domains.

[4] = target: T3, I-CreI combinatorial mutant NNSRK/ASR, P05725
T3 chain: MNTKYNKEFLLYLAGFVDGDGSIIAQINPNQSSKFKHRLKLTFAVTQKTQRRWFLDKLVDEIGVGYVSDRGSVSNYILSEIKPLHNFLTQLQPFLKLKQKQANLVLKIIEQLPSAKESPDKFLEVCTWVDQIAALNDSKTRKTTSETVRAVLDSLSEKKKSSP

B1: I-CreI K44, T68, G70, N75 (protein)
chain: MNTKYNKEFLLYLAGFVDGDGSIIAQIKPNQSYKFKHQLSLTFKVTQKTQRRWFLDKLVDEIGVGYVTDGGSVSNYILSEIKPLHNFLTQLQPFLKLKQKQANLVLKIIEQLPSAKESPDKFLEVCTWVDQIAALNDSKTRKTTSETVRAVLDSLSEKKKSSP
[1]
  cleavage of chimeric DNA targets gtt/gcc and gtt/cct (yeast LacZ recombination assay, co-expression): co-expression of the K44, T68, G70, N75 (KTG) and Q44, A68, N70, N75 (QAN) mutants resulted in the cleavage of two chimeric targets, gtt/gcc and gtt/cct, that were not cleaved by either mutant alone

B2: I-CreI combinatorial mutant KNHQS/KAS (enzyme, UniProt P05725 1-163, looked up)
chain: MNTKYNKEFLLYLAGFVDGDGSIIAQIKPNQSHKFKHQLSLTFKVTQKTQRRWFLDKLVDEIGVGYVADSGSVSNYILSEIKPLHNFLTQLQPFLKLKQKQANLVLKIIEQLPSAKESPDKFLEVCTWVDQIAALNDSKTRKTTSETVRAVLDSLSEKKKSSP
notes: The scaffold ORF has three additional C-terminal codons (AAD)
[2]
  in vitro cleavage of the COMB1 target by purified proteins incubated together: Cleavage of the COMB1 target was also detected in vitro when the KNHQS/KAS and NNSRK/ARR purified proteins were incubated together with the COMB1 target in our conditions, while incubation of single protein did not give rise to any detectable cleavage activity. However, the cleavage efficiency was e
[3]
  binding result: binds

B3: I-CreI combinatorial mutant QNRQR/KEG (protein)
chain: MNTKYNKEFLLYLAGFVDGDGSIIAQIQPNQSRKFKHQLRLTFKVTQKTQRRWFLDKLVDEIGVGYVEDGGSVSNYILSEIKPLHNFLTQLQPFLKLKQKQANLVLKIIEQLPSAKESPDKFLEVCTWVDQIAALNDSKTRKTTSETVRAVLDSLSEKKKSSP
[4]
  cleavage of the chimeric site COMB1 (yeast LacZ recombination assay, co-expression): co-expression resulted in cleavage of the chimeric sequence COMB1 among all tested heterodimers (QNRQR/KEG×NNSRK/ASR named as the example with the weaker activity)

B4: I-CreI combinatorial mutant KNHQS/KEG (enzyme, UniProt P05725 1-163, looked up)
chain: MNTKYNKEFLLYLAGFVDGDGSIIAQIKPNQSHKFKHQLSLTFKVTQKTQRRWFLDKLVDEIGVGYVEDGGSVSNYILSEIKPLHNFLTQLQPFLKLKQKQANLVLKIIEQLPSAKESPDKFLEVCTWVDQIAALNDSKTRKTTSETVRAVLDSLSEKKKSSP
notes: as for B2
[2]
  cleavage of the chimeric site COMB1 (yeast LacZ recombination assay, co-expression): co-expression resulted in cleavage of the chimeric sequence COMB1 among all tested heterodimers (KNHQS/KEG×NNSRK/ARR named as the example with the higher level of activity)
[3]
  binding result: binds

B5: I-CreI combinatorial mutant NNSRK/ARR (enzyme, UniProt P05725 1-163, looked up)
chain: MNTKYNKEFLLYLAGFVDGDGSIIAQINPNQSSKFKHRLKLTFAVTQKTQRRWFLDKLVDEIGVGYVRDRGSVSNYILSEIKPLHNFLTQLQPFLKLKQKQANLVLKIIEQLPSAKESPDKFLEVCTWVDQIAALNDSKTRKTTSETVRAVLDSLSEKKKSSP
notes: as for B2
[3]
  binding result: binds

B6: I-CreI combinatorial mutant NNSRK/ASR (enzyme, UniProt P05725 1-163, looked up)
chain: MNTKYNKEFLLYLAGFVDGDGSIIAQINPNQSSKFKHRLKLTFAVTQKTQRRWFLDKLVDEIGVGYVSDRGSVSNYILSEIKPLHNFLTQLQPFLKLKQKQANLVLKIIEQLPSAKESPDKFLEVCTWVDQIAALNDSKTRKTTSETVRAVLDSLSEKKKSSP
notes: as for B2
[3]
  binding result: binds
